In article PMC4126800 (Nature, 2014):

Biological target: the molecule itself
Experiment: SAXS

B1: Human CD81 large extracellular loop (CD81 LEL, residues 112-202) (domain or fragment)
chain: GFVNKDQIAKDVKQFYDQALQQAVVDDDANNAKAVVKTFHETLDCCGSSTLTALTTSVLKNNLCPSGSNIISNLFKEDCHQKIDDLFSGKL
stoichiometry N: 2
